Source: the DeepSol protein solubility set

Assay: soluble on expression in E. coli; label from the status in PepcDB or PDB records

| Sequence | soluble on expression in E. coli |
| --- | --- |
| SDRFVWTSGLLEINETLVIQQRGVRIYDGEEKIKFDAGTLLLSTHRLIWRDQKNHECCMAILLSQIVFIEEQAAGIGKSAKIVVHLHPAPPNKEPGPFQSSKNSYIKLSFKEHGQIEFYRRLSEEMTQRRWENMPVSQSLQTNRGPQPGRIRAVGIVGIERKLEEKRKETDKNISEAFEDLSKLMIKAKEMVELSKSIANKIKDKQGDITEDETIRFKSYLLSMGIANPVTRETYGSGTQYHMQLAKQLAGILQVPLEERGGIMSLTEVYCLVNRARGMELLSPEDLVNACKMLEALKLPLRLRVFDSGVMVIELQSHKEEEMVASALETVSEKGSLTSEEFAKLVGMSVLLAKERLLLAEKMGHLCRDDSVEGLRFYPNLFMTQS | soluble |
| SDTFSTKSLALQAQKKVLSKMASKAMVAVFVDNTSSEVLDELYQATKEFTRSRKEAQRVVKNLVKVAVKLAVLLRADQLDSNELAQLQRFRGRVRSLAMTALSFHQVDFTFDRRVLATGLLECRDLLHQAIGPHLTAKSHGRINHIFSHFANGDFLAALYSPAEPYRSHLCRICDGLGRMLDEGGI | soluble |
| SEDNITVRFVTENDKEGWQRLWKSYQDFYEVSFPDDLDDFNFGRFLDPNIKMWAAVAVESSSEKIIGMINFFNHMTTWDFKDKIYINDLYVDENSRVKGAGGKLIQFVYDEADKLGTPSVYWCTDESNHRAQLLYVKVGYKAPKILYKRKGY | soluble |
| SEEDIDTRKINNSFLRDHSYATEADIISTVEFNHTGELLATGDKGGRVVIFQREQESKNQVHRRGEYNVYSTFQSHEPEFDYLKSLEIEEKINKIRWLPQQNAAYFLLSTNDKTVKLWKVSERDKRPEGYNLKDEEGRLRDPATITTLRVPVLRPMDLMVEATPRRVFANAHTYHINSISVNSDYETYMSADDLRINLWNFEITNQSFNIVDIKPANMEELTEVITAAEFHPHHCNTFVYSSSKGTIRLCDMRASALCDRHTKFFEEPEDPSNRSFFSEIISSISDVKFSHSGRYIMTRDYLTVKVWDLNMENRPIETYQVHDYLRSKLCSLYENDCIFDKFECVWNGSDSVIMTGSYNNFFRMFDRNTKRDVTLEASRENSKPRAILKPRKVCVGGKRRKDEISVDSLDFSKKILHTAWHPSENIIAVAATNNLYIFQDKVN | not soluble |
| SEHPQPVTTQIEKSVNTALNKNYVFNKADYQYTLTNPSLGKIVGGILYPNATGSTTVKISDKSGKIIKEVPLSVTASTEDNFTKLLDKWNDVTIGNYVYDTNDSNMQKLNQKLDETNAKNIEAIKLDSNRTFLWKDLDNLNNSAQLTATYRRLEDLAKQITNPHSTIYKNEKAIRTVKESLAWLHQNFYNVNKDIEGSANWWDFEIGVPRSITGTLSLMNNYFTDAEIKTYTDPIEHFVPDAEYFRKTLVNPFKALGGNLVDMGRVKIIEGLLRKDNTIIEKTSHSLKNLFTTATKAEGFYADGSYIDHTNVAYTGAYGNVLIDGLTQLLPIIQETDYKISNQELDMVYKWINQSFLPLIVKGELMDMSRGRSISREAASSHAAAVEVLRGFLRLANMSNEERNLDLKSTIKTIITSNKFYNVFNNLKSYSDIANMNKLLNDSTVATKPLKSNLSTFNSMDRLAYYNAKKDFGFALSLHSKRTLNYEGMNDENTRGWYTGDGMFYIYNSDQSHYSNHFWPTVNPYKMAGTTEKDAKREDTTKEFMSKHSKDAKEKTGQVTGTSDFVGSVKLNDHFALAAMDFTNWDRTLTAQKGWVILNDKIVFLGSNIKNTNGIGNVSTTIDQRKDDSKTPYTTYVNGKTIDLKQASSQQFTDTKSVFLESKEPGRNIGYIFFKNSTIDIERKEQTGTWNSINRTSKNTSIVSNPFITISQKHDNKGDSYGYMMVPNIDRTSFDKLANSKEVELLENSSKQQVIYDKNSQTWAVIKHDNQESLINNQFKMNKAGLYLVQKVGNDYQNVYYQPQTMTKTDQLAI | soluble |
| SFALEELPRIPDFTERAICELFELYASIESVQLPPQSSDATNSSSATAPGNIFSAERGPRYLGPRALVRFFTELGVDMRSLAALAFAWLGRWQYPCHCREEGFARGVRYALWALDRRQHNEPRRWEQVQATCSTLLETSIWPRESTALFERLRSAFPDAVLSYTQRSAEAALDFYLFAFDLNRQSPYRRSLSLTDARYLWKQFLSESCYLATPASPGTPAGVANQPWRYLEHFDAYLESRCGMAGTIISRDTWYWVLMFARETQVAGSSFFANYNQGDAWPVLLDGFVEYLRENKLLSS | soluble |
| SFGCLVAGRLVQTAAQQVAEDKFVFDLPDYESINHVVVFMLGTIPFPEGMGGSVYFSYPDSNGMPVWQLLGFVTNGKPSAIFKISGLKSGEGSQHPFGAMNIVRTPSVAQIGISVELLDSMAQQTPVGNAAVSSVDSFTQFTQKMLDNFYNFASSFAVSQAQMTPSPSEMFIPANVVLKWYENFQRRLAQNPLFWKT | soluble |
| SFQGADSQAGKSGSRSMKPPGGESSDLFGSPEEGISSSKPNRMASNIFGPTEEPKNIPKRTNPPGGKGSGIFDESTPVQTRQRLNPPGGKTSDIFGSPVTATAPLAHPNKPKDHVLLCEGEDSKSDLKAATDSTPRGEQSDKGSSKEVEHAKIPEPTPTVDSHEPRLGPRPRSHNKVLNPPGGKSSLSFY | soluble |
| SFQGIRQPVTVTELVDSGILRPSTVNELESGQISYDEVGERIKDFLQGSSCIAGIYNETTKQKLGIYEAMKIGLVRPGTALELLEAQAATGFIVDPVSNLRLPVEEAYKRGLVGIEFKEKLLSAERAVTGYNDPETGNIISLFQAMNKELIEKGHGIRLLEAQIATGGIIDPKESHRLPVDIAYKRGYFNEELSEILSDPSDDTKGFFDPNTEENLTYLQLKERCIKDEETGLCLLPLKEKKKQVQTS | soluble |
| SGLRDWLRTVCCCCGCECLEERALPEKEPLVSDNNPYSSFGATLVRDDEKNLWSMPHDVSHTEADDDRTLYNLIVIRNQQAKDSEEWQKLNYDIHTLRQVRREVRNRWKCILEDLGFQKEADSLLSVTKLSTISDSKNTRKAREMLLKLAEETNIFPTSWELSERYLFVVDRLIALDAAEEFFKLARRTYPKKPGVPCLADGQKELHYLPFPSP | soluble |
| SGVTGAHGFPCCGKGSVEVAEMRDDLSQHQIQEEQELEADMLEQKPQLQVDLDLDPDPDPDPELEIGQVPALLESELYPALKLEAELDTEANSNEESDFEEPMQLVCKIESVHSNMGLPTPQTFRPWSLNSNCRSFTEENHMSACHHSISAQTSKHLFWANKLIQASEHSLQRAINMQLNNGSAGQPIRSPLREAIPTNALCSEEQLQIPDAHSAPPTTSSQAPSPLLSSDLPPPIDLTELITFASSLAMASSSRMDLPSLEHMMKAPPQEALEPSTEPLLTTVEEREPENHAETLPEKPREARAPLKSWSQEDKNFAQSYFDFSKPGIKRATIKGQIQLLQPPATSPLLQGSKEDSVPPGKEKENPLLVKIHFKLSAPTIPEK | soluble |
| SHMAIVKVTDADFDSKVESGVQLVDFWATACGPCKMIAPVLEELAADYEGKADILKLDVDENPSTAAKYEVMSIPTLIVFKDGQPVDKVVGFQPKENLAEVLDKHL | soluble |
| SHMSKAKFDKAVEIVQSLPKDGPIKPTQDEQLYFYKYFKQATVGDVNISRPGLMDFTGKAKWDAWKSVEGTSKEVAYQKYVEKLLEILKKADTEESKKYIAEIEAA | soluble |
| SIPALHRLVTVNMIPDASNDNIMVMRSYQIQATREILQRMKEMEASGLVQKEGGYIWHTTGSGKTVTSFKVAQLLASAPRIKNVLFIVDRIDLIDQTLENFKSFAYAHFKNRIKKVNGRELKRELKRKGSSQILLISVQGLTKAVKKGLENDDWNVIIMDEAHRSASGESVKLIKKALKKTTWFGFTGTPN | not soluble |
| SISQQTVWNQMATVRTPLNFDSSKQSFCQFSVDLLGGGISVDKTGDWITLVQNSPISNLLRVAAWKKGCLMVKVVMSGNAAVKRSDWASLVQVFLTNSNSTEHFDACRWTKSEPHSWELIFPIEVCGPNNGFEMWSSEWANQTSWHLSFLVDNPKQSTTFDVLLGISQNFEIAGNTLMPAFSVPQANARSSENAESSA | soluble |
| SIVHHAKERLILCSPYFIPDESLLEAVTSACYRGVTVELFVSEQADQFAIDHAQSSYYQALLEAGVKIYQFPKPDVLHTKYMIADPDDTTGNEALGVLGSSNLDIRSFGLNYEISLMIAKGNLIHELNALTDRYRTVSFKLTLDKWNQRSWRRRYVDNVMRLTSALQ | not soluble |
| SIYQVAIKSLPQDWLWCETWCDDESKQRAKTIDLCNNPKTKEPKLEAAARIVPEWVTYDTEIRTLLDHLENKKKSANSVHDEL | soluble |
| SKAAIYHAFSHKEAKDHDVQELGSQRAEAFVRAFLKQSIPHMSQEDCESHLQRKAVILEYFTRLKPRPRPKKKSKGLSAKQRRDMRLFDIKPEQQRYSLFLPLHELWKQYIRDLCNGLKPDTQPQMIQAKLLKADLHGAIISVTKSKCPSYVGVTGILLQETKHVFKIITREDHLKVIPKLNCVFTIEIDDFISYIYGSKFQLRASERSAKKFKAKGSIDL | soluble |
| SKDELGEVIHAFNRMMTKLRKREKQRQHSLATLEQKRAFSEEVIESIQYALVITDNLGTIIHSNAATQHIFQKTPEALENANIRDLIKTKMPNELSQILSRCLECDDIHLQNIDNEQQLSLTTRRLSNHGYLLFAIQD | not soluble |
| SKIASFDVDAQKGFTPLCPDELPVPGGDAIGGALNQLASRAALRLGSKDAHSPKAAWVVESAEQMLRPLAYPDADLTWVSHCVPGTPGFELLDELPRPIDYDFFVWKGVEPDLHPYGACYHDLAERRSTGVIEYLRQNGVSHVLVGGLALDYCVKNTALQLRRAGFEVLLYLPACRAIAEDTAQRACDEMRDAGVILCADLERLDSALA | not soluble |
| SKKVIGKKRAHAEDDELDPMDPSSYSDAPRGGWVVGLKGVQPRAADTTASTGIFFKFQITDLTKPDEKIEVLTKRDQIVFQGPLFQQRPYPSPGAVLRRNAEVASSQKKKPNSQFTEITKRGDGSDGLGDAD | soluble |
| SKRRRCKGKNMTKNLLVELGLEELPAYVVTPSEKQLGEKMAAFLGENRLSYESIQTFSTPRRLAVRVLGLADQQTDLTEDFKGPSKKIALDADGNFSKAAQGFVRGKGLTVDDIEFREVKGEEYVYVTKHEAGKSAKEVLAGIPEVLASLTFPVSMHWANNSFEYIRPVHTLIVLLGDEALELDFLGIKSGRVSRGHRFLGHEVEITNADSYEEDLRTVYVIANSKERENMIREQIKAIEAEQGVQVQIEEGLLNEVLNLVEYPTTFMGGFDTKYLDVPEDVLVTSMETHQRYFVVRDLDGRLKPNFISVRNGNAEHLENVVRGNEKVLVARLEDGEFFWREDQKLKIEDLVAKLANVTFHEKIGSLSEHMARAGVIAASLAEKAGLTAEEKAAVARAAEIYKFDLLTGMVGEFDELQGIMGEKYALLAGEDEAVATAIREHYLPDSADGALPETKVGAILALADKLDTLLSFFSVGLIPSGSNDPYALRRATQGIVRILDAFGWHIPMDELIDSLYGLSFDSLSYDNQAEVIRFIKARVDKMMGSTPKDIKEAVLSGSNFV | not soluble |
| SKSKEPLLNGFFWNRTSIYYNCQVIIEVTEMLHNASLLIDDIEDSSKLRRGFPVAHSIYGIPSVINSANYVYFLGLEKVLMLEHPEAVRVFTRQLLELHRGQGLDIHWRDTYTCPSEAEYRAMVLQKTGGLFGLAVGLMQLFSDWKRDLKPLLDTLGLYFQIRDDYANLNSKQYSANKSFCEDLTEGKFSFPTIHAIWSHPESTQVQNILRRRTENLDIKRYCVDYLEKVGSFAYTRQTLLDLEVEAYRLIKELGGNPELEALVEHLSRMYKEPEGGATVSQSK | soluble |
| SLCIDRQLYSAVQNSNRQKHQPLNSYVSLSDENESDHLEGSWSEDPEALIIDQESTRTLEREITKVLSPMENKVLDYYLRGYGYVKIAEIMGKTPKSIDNALQRIRGKIRNFSAPVQK | not soluble |
